Data: patent publication US20230399393A1, “METHODS TO EXTEND HEALTH-SPAN AND TREAT AGE-RELATED DISEASES” (National University of Singapore, priority 2020, published 2023)

Tests used:
[1] = system: Primary human hepatocytes; assay: Hepatocytes stimulated with IL-11, BSA or palmitate with X203, X209 or IgG, western blot; format: cell-based; conditions: 24 hours; antibody 2 μg/ml; IL11 10 ng/ml or palmitate 0.5 mM
Description: FIG. 20. Western blot image showing the levels of p-ERK, ERK, p-P90RSK, P90RSK, p-LKB1, LKB1, p-AMPK, AMPK, p-Acetyl-CoA Carboxylase (p-ACC), Acetyl-CoA Carboxylase (ACC), p-mTOR, mTOR, p-p70S6K, p70S6K, p-S6RP, S6RP in primary human hepatocytes that are unstimulated (BL) or stimulated for 24 hours with either IL11, 0.5% BSA, or palmitate (saturated fatty acid) in the presence of X203, X209, or IgG (11E10) isotype control. IL11 (10 ng/ml), IgG/X203/X209 (2 μg/ml), palmitate (0.5 mM) conjugated in free BSA (0.5% BSA solution) in the ratio of 6:1.
Primary human hepatocytes (stimulated with IL-11, BSA or palmitate, or unstimulated) were treated with X203 (anti-IL-11 antagonist antibody) and X209 (anti-IL-11Rα antagonist antibody). […] Treatment with X203 or X209 essentially reverses the effect of palmitate stimulation on these markers to the levels observed in the unstimulated control.

AML12 cells = assay: In vitro model of senescence induction, qRT-PCR at day 7; format: cell-based, mouse; conditions: 2 ug/ml from day 2, H2O2 0.75 mM, vs isotype-matched control IgG
Description: Senescent hepatic mouse cells were generated from cells of the mouse hepatocyte cell line AML12 as described in Tripathi et al., Star Protocols (2020) 1:100064 (hereby incorporated by reference in its entirety).
Briefly, AML12 cells were grown to 50% confluency and senescence was induced by treating the cells with a sub-lethal concentration of H2O2 (0.75 mM) for 1 h, followed by 23 h recovery per day, for a total of 7 days (as described in Tripathi et al., Star Protocols (2020) 1:100064). From day 2 onwards, 2 ug/ml of X209/X203 or isotype-matched control IgG was added to the cultures during the 23h recovery period.
Total RNA was isolated at day 7, and levels of p21 (Cdkn1a), […], Il11 and Tgfb gene expression were evaluated by qRT-PCR. Briefly, total RNA was extracted from cell lysates using Trizol (Invitrogen) followed by RNeasy column (Qiagen) purification. cDNAs were synthesized with iScript™ cDNA synthesis kit (Bio-Rad) according to manufacturer's instructions. Gene expression analysis was performed with either TaqMan (Applied Biosystems) or fast SYBR green (Qiagen) using the StepOnePlus Real-Time PCT System (Applied Biosystems) over 40 cycles. Expression data for p21 (Cdkn1a), Il1b, Il11 and Tgfb were normalised to Gapdh expression, and fold change was calculated using the 2^−ΔΔCt method.

C57Bl/6J mice [2] = assay: Renal function: blood urea nitrogen (BUN) and creatinine; format: in vivo, mouse
Description: C57Bl/6J mice are randomised to receive either X203 or IgG control antibody at a dose of 40 mg/kg via IP injection every 3 weeks from age 55 weeks to age 110 weeks, and renal function was evaluated by analysis of serum levels of blood urea nitrogen (BUN) and creatinine using the Urea Assay Kit (ab83362, Abcam) and Creatinine Assay Kit (ab65340, Abcam) in accordance with the manufacturer's instructions.
Levels of BUN and serum creatinine was also analysed in 12 week-old male and female C57Bl/6J mice, in order to determine baseline levels. Data were analysed by 2-way ANOVA.

C57Bl/6J mice [3] = assay: Gastrocnemius and soleus muscle weights; format: in vivo, mouse; conditions: age 110 weeks; vs IgG control
Description: From age 55 weeks (human equivalent of ˜45 years old (i.e. middle age)) to age 110 weeks (human equivalent of ˜75 years old), mice were administered with 40 mg/kg of either X203 or isotype-matched control IgG via intra-peritoneal injection every 3 weeks.
Mice also underwent body-composition assessment via echo MRI both at baseline (age 55 weeks) and at 108-109 weeks. This enabled calculation of the change in body fat mass and lean (muscle) mass in the X203 and IgG control treatment groups. Gastrocnemius and soleus muscles were also harvested from the mice at age 110 weeks and their weights were recorded. Data were analysed by 2-way ANOVA.

[4] = system: Primary human cardiac fibroblasts; assay: IL11 or TGFβ1 stimulated fibroblasts with X203, X209 or IgG, western blot; format: cell-based; conditions: IL11/TGFβ1 10 ng/ml, 24 hours; antibody 2 μg/ml
Description: FIG. 19. Western blot image showing the levels of p-ERK, ERK, p-P90RSK, P90RSK, p-LKB1, LKB1, p-AMPK, AMPK, p-mTOR, mTOR, p-p70S6K, p70S6K, p-S6RP, S6RP, SMA, and GAPDH in primary human cardiac fibroblasts that are unstimulated (BL) or stimulated for 24 hours with either IL11 or TGFβ1 in the presence of X203, X209, or IgG (11E10) isotype control. IL11/TGFβ1 (10 ng/ml), IgG/X203/X209 (2 μg/ml).
Primary human cardiac fibroblasts were stimulated with IL11 or TGFβ1, or unstimulated (BL).

C57Bl/6J mice [5] = assay: Analysis of markers of cellular senescence in tissues; format: in vivo, mouse; conditions: at 110 weeks; p16INK4a, p21CIP1, p53, SA-ß-gal; vs IgG control antibody
Description: C57Bl/6J mice are randomised to receive either X203 or IgG control antibody at a dose of 40m/kg via IP injection every 3 weeks from age 55 weeks to age 110 weeks.
At 110 weeks, tissues are harvested from the mice cells of the relevant tissues and analysed for gene and/or protein expression of p16^INK4a, p21^CIP1 and p53, and for SA-ß-gal activity.

C57Bl/6J mice [6] = assay: Metabolic function: serum/liver triglyceride, serum cholesterol, serum hydroxybutyrate; format: in vivo, mouse
Description: C57Bl/6J mice were randomised to receive either X203 or IgG control antibody at a dose of 40 mg/kg via IP injection every 3 weeks from age 55 weeks to age 110 weeks, and serum triglyceride, liver triglyceride, serum cholesterol and serum p-hydroxybutyrate levels were measured using Triglyceride Assay Kit (ab65336, Abcam), Cholesterol Assay Kit (ab65390, Abcam), and Beta-Hydroxybutyrate Colorimetric Assay Kit (700190; Cayman chemicals), in accordance with the manufacturer's instructions. Levels of serum triglyceride, liver triglyceride, serum cholesterol and serum p-hydroxybutyrate were also analysed in 12 week-old male and female C57Bl/6J mice, in order to determine baseline levels. Data were analysed by 2-way ANOVA.

[7] = treatment from age 55 to 110 weeks

B1: X203: mouse anti-mouse IL-11 IgG antagonist antibody; VH SEQ ID NO:22, VL SEQ ID NO:23 (antibody, V domains shown)
VH: EVQLQQSGPELVKPGASVKIPCKASGYTFTDYNMDWVKQSHGKSLEWIGDINPHNGGPIYNQKFTGKATLTVDKSSSTAYMELRSLTSEDTAVYYCARGELGHWYFDVWGTGTTVTVSS
VL: DIVLTQSPASLAVSLGQRATISCRASKSVSTSGYSYIHWYQQKPGQPPKLLIYLASNLDSGVPARFSGSGSGTDFTLNIHPVEEEDAATYYCQHSRDLPPTFGGGTKLEIK
levels of p-AMPK and p-ACC [1]: increase
levels of phosphorylated markers p-ERK, p-p90RSK, p-LKB1, p-mTOR, p-p70S6K and p-S6RP [1]: reduces
gene expression of Il11 (AML12 cells): trended towards a reduced level
gene expression of Tgfb (AML12 cells): significantly reduce
reduction in creatinine levels relative to IgG control (C57Bl/6J mice [2]; female mice, baseline 12 week old female 0.77 mg/dl): 43%
reduction in BUN levels relative to IgG control (C57Bl/6J mice [2]; female mice, baseline mean BUN of 12 week old female mice 31.8 mg/dl): 42%
reduction in creatinine levels relative to IgG control (C57Bl/6J mice [2]; male mice, baseline 12 week old male 0.92 mg/dl): 60%
reduction in BUN levels relative to IgG control (C57Bl/6J mice [2]; male mice, baseline mean BUN of 12 week old male mice 51.3 mg/dl): 79%
renal function (C57Bl/6J mice [2]; vs IgG control antibody): improved
weight of gastrocnemius muscle as a proportion of body weight (C57Bl/6J mice [3]): greater
weight of soleus muscle as a proportion of body weight (C57Bl/6J mice [3]): greater
level of phosphorylation of markers ERK, p90RSK, LKB1, mTOR, p70S6K and S6RP [4]: significantly reduce
levels of markers of cellular senescence (C57Bl/6J mice [5]): lower
reduction in serum triglyceride levels relative to IgG control (C57Bl/6J mice [6]; female mice, baseline 12 week old female 37 mg/dl): 47%
reduction in serum cholesterol levels relative to IgG control (C57Bl/6J mice [6]; female mice, baseline 12 week old female 90 mg/dl): 51%
reduction in liver triglyceride levels relative to IgG control (C57Bl/6J mice [6]; female mice, baseline 12 week old female 130 mg/g): 54%
reduction in serum triglyceride levels relative to IgG control (C57Bl/6J mice [6]; male mice, baseline 12 week old male 54 mg/dl): 65%
reduction in serum cholesterol levels relative to IgG control (C57Bl/6J mice [6]; male mice, baseline 12 week old male 149 mg/dl): 45%
reduction in liver triglyceride levels relative to IgG control (C57Bl/6J mice [6]; male mice, baseline 12 week old male 165 mg/g): 71%
aging-associated hypertriglyceridemia, steatosis (liver fat accumulation) and hypercholesterolemia (C57Bl/6J mice [6]; [7]): reduce
levels of circulating β-hydroxybutyrate (C57Bl/6J mice [6]; [7]): increase
